B1: VacW-105 (antibody, V domains shown)
VH: QVQLVQSGAEVKKPGSSVKVSCKASGGTFRSYTISWVRQAPGQGLEWMGRILPILGIANYAQKFQGRVTITADKSTSTAYMELSSLRSEDTAVYYCARVTGAPVESAAWFDPWGQGTLVTVSS
VL: not shown
B2: VacW-209 (antibody, V domains shown)
VH: QVQLVESGGGVVQPGRSLRLSCAASGFTFSSIAMHWVRQAPGKGLEWVAVMSFDGSIKYYGDSVKGRFTISRDNSKSTLYLQMNSLRAEDTAVYYCARGVQGYYDRSGYYNLDYNYGMDVWGQGTTVTVSS
VL: QSVLTQPPSVSGAPGQRVTISCTGSSSNIGAGYDVHWYQQLPGTAPKLLIYGNSNRPSGVPDRFSGSKSGTSASLAITGLQAEDEADYYCQSYDSSLSGWVFGGGTKLTVL
B3: VacW-201 (antibody, V domains shown)
VH: EVQLVESGGGLVQPGGSLRLSCAASGFTFSSYWMNWVRQAPGKGLEWVANIKQDGSEKYYVDSVKGRFTISRDNAKNSLYLQMNSLRAEDTAVYYCARMEYPYGGVDYWGQGTLVTVSS
VL: NFMLTQPHSVSESPGKTVTISCTGSSGSIASNYVQWYQQRPGSAPTTVIYEDNQRPSGVPDRFSGSIDSSSNSASLTISGLKTEDEADYYCQSYDSSNRNWVFGGGTKLTVL
B4: VacW-215 (antibody, V domains shown)
VH: EVQLVESGGGLIQPGGSLRLSCAASGFTVSSNYMSWVRQAPGKGLEWVSVIYSGGSTYYADSVKGRFTISRDNSKNTLYLQMNSLRAEDTAVYYCARSTWLRGGFDYWGQGTLVTVSS
VL: B3 VL with R99H, N100F, W101Y, G105T, L109V
B5: VacW-212 (antibody, V domains shown)
VH: B3 VH with G55E, Y80F, A88V, V106I, S119A
VL: B3 VL
B6: VacW-138 (antibody, V domains shown)
VH: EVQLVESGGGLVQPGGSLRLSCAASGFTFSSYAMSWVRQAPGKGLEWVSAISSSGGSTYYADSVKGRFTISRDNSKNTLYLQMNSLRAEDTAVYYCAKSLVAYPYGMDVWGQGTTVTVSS
VL: AIQLTQSPFSLSASVGDRVTITCRASQGISSALAWYQQKPGKAPKLLIYDASSLESGVPSRFSGSGSGTDFTLTISSLQPEDFATYFCQQVDTYQFTFGPGTKVDIK

Usually Kd stands for the concentration at which binding is half-saturated.

Positions count from the first letter of the chain named.

In one assay the target is T1, SARS-CoV-2 Delta variant RBD protein (L452R and T478K) (SARS-CoV-2, UniProt P0DTC2 319-541).
T1 construct: domain: RBD; also called L452R和T478K
The assay can be described thus: SPR, Biacore 8K, RBD on CM5 chip, IgG injected, 1:1 model. For orientation: SPR reads the build-up and loss of mass on a sensor chip optically.
In the case of B1, the Kd amounted to 5.1 nM.

Turning to B2, binding was characterised by a dissociation constant (Kd) of 0.0467 nM.

B3 yielded a dissociation constant (Kd) of 2.14 nM.

In turn, B4 registered a Kd of 1.02 nM.

In turn, B5 returned an equilibrium dissociation constant (Kd) of 1.83 nM.

Molecule B6 came in with a dissociation constant (Kd) of 3.11 nM.

In the next assay the target is T2, SARS-CoV-2 Kappa variant RBD protein (L452R and E484Q) (SARS-CoV-2, UniProt P0DTC2 319-541).
T2 construct: domain: RBD; also called L452R和E484Q
The description is as above.
For the molecule B1, binding was put at a Kd of 4.13 nM.

B2: the dissociation constant (Kd) came out at 0.0234 nM.

With B3, the affinity, expressed as Kd, was 1.71 nM.

As to B4, binding was characterised by a dissociation constant (Kd) of 0.676 nM.

Molecule B5 returned a dissociation constant Kd of 1.32 nM.

Turning to B6, binding was put at a Kd of 3.17 nM.

In another assay the target is T3, SARS-CoV-2 RBD protein E484Q mutant (SARS-CoV-2, UniProt P0DTC2 319-541).
T3 construct: domain: RBD
The assay is described as above.
On to B1, for which the Kd was determined as 5.22 nM.

For B2, the Kd is 0.033 nM.

Take B3: the dissociation constant (Kd) is 2.25 nM.

B4 had a Kd of 0.967 nM.

In turn, B5 came in with an equilibrium dissociation constant (Kd) of 1.74 nM.

Molecule B6 displayed a dissociation constant Kd of 3.12 nM.

The next assay addresses T4, SARS-CoV-2 RBD protein T478K mutant (SARS-CoV-2, UniProt P0DTC2 319-541).
T4 construct: domain: RBD
Described as above.
B1 yielded a Kd of 3.37 nM.

Molecule B2 came in with a Kd of 0.023 nM.

In turn, B3 registered a Kd of 1.64 nM.

As to B4, the Kd was determined as 0.683 nM.

Molecule B5 displayed a Kd of 1.22 nM.

For B6, the affinity, expressed as Kd, was 1.75 nM.

The values above are taken from CN113912709A (SHENZHEN NATIONAL CLINICAL RES CENTER FOR INFECTIOUS …, dated 2022).
